Holding throughout (assay type): biochemical, Z. mays
The test system of data set [1] is 4-hydroxyphenylpyruvate dioxygenase (HPPD). The experiment in a line: ON rate ratio: HPPD reaction rate with vs without inhibitor in the 70 to 90 second interval. The conditions noted are these: Table 7; tembotrione; combinatorial variants. From the text: (§1) Higher KD (reduced affinity or increased insensitivity) can be attained with a numerically smaller ON rate, a larger OFF rate or both. To detect and quantify changes in kON and kOFF, observations of the time course of an HPPD reaction as inhibitor binds to and inactivates the enzyme (kON), or is released from a pre-formed enzyme-inhibitor complex (kOFF) were used, as shown in FIGS. 13A and 13B. In practice, a quantitative indicator of kON was obtained by monitoring the time courses of HPPD reactions containing 60 or 120 nM HPPD and 100 μM HPP in the presence and absence of 4 μM inhibitor (e.g., mesotrione or tembotrione). The ratio of the reaction rate with inhibitor to that without inhibitor during the 70 to 90 second interval of the reaction was termed the “ON rate ratio”. The smaller the actual kON, the more slowly the HPPD reaction decelerates and the higher the value is for the ON rate ratio. FIGS. 13A and 13B illustrate the contrasting reaction velocity in the 70-90 sec interval for maize wild-type HPPD (FIG. 13A) versus an improved variant (SEQ ID NO:78) (FIG. 13B).

The test system is the same in data set [2]. Briefly: OFF rate ratio: release of inhibitor from pre-formed enzyme-inhibitor complex. Particulars: Table 7; tembotrione; combinatorial variants. As to the method:
A quantitative indicator of kOFF can be obtained by observing the time course of an HPPD reaction as inhibitor is released from a pre-formed enzyme-inhibitor complex. HPPD and inhibitor were incubated together at concentrations of 7.2 and 8 μM, respectively. Incubations with the same concentrations of enzyme but no inhibitor were done in parallel. After 1 hr at room temperature, 5 to 10 μl of the enzyme-inhibitor complex was dispensed into the wells of the assay plate. Reactions were started with the addition of 290 to 295 μl of 25 mM Hepes, pH 7, 2 mM ascorbate, 10 μM FeSO4, 100 μM HPP and 50 nM HGD. The reactions were monitored at 320 nm for 12 min. Reaction velocity accelerates as inhibitor is released from the enzyme until a steady state is reached, during which the reaction velocity is constant. The ratio of the steady state rate in mixtures containing herbicidal inhibitor to the initial velocity of mixtures lacking inhibitor is termed the “OFF rate ratio”.
Another parameter to record is the time span required for the reactions with inhibitor to reach the steady state. FIGS. 13C and 13D illustrate the contrasting time span in which maize wild-type HPPD (FIG. 13C) and an improved variant (SEQ ID NO:78) (FIG. 13D) dissociated from mesotrione, as indicated by the accelerating reaction rates. The plateau of absorbance is due to exhaustion of the substrate. With the improved variant, not only was the steady state attained in a shorter time span (80 sec for the variant versus 280 sec for wild type), the velocity attained was twice as high as with wild type, though the enzymes were present at the same concentration (240 nM). This is because a larger fraction of the variant enzyme is free of inhibitor compared to the wild-type enzyme, and the kcat for both is nearly the same, about 220 min^−1.

For data set [3] the test system is unchanged. Briefly: Insensitivity parameter (ON × OFF) and trait fitness (ON × OFF × kcat/KM or × kcat). Details: key to ON × OFF / Insensitivity, mesotrione, ON × OFF / Insensitivity, tembotrione, ON × OFF / Insensitivity, topramezone, ON × OFF / Insensitivity, sulcotrione, ON × OFF / Insensitivity, isoxaflutole (DKN), ON × OFF: insensitivity = ON rate ratio × OFF rate ratio (surrogate for KD). The source says: Because substrate and inhibitors bind in the same site, the high concentration of substrate present may competitively trap the inhibitor and prevent it from binding again. To be sure that improvement in ON rates is being taken into account, the ON and OFF rate ratios were multiplied, creating an “insensitivity parameter” that is a surrogate for KD. KD is expressed as kOFF/kON, but because the ON rate ratio is an inverse parameter (the higher the value of ON rate ratio, the lower the value of the represented phenomenon, kON), it is appropriate to multiply ON and OFF rate ratios rather then divide OFF rate ratio by ON rate ratio. Another parameter, which quantifies the combined catalytic and insensitivity properties of the enzyme is kcat/KM×ON rate ratio×OFF rate ratio, and is termed “trait fitness”. This parameter is intended to have a meaning similar to the commonly used expression kcat/KM×Ki.

The test system is the same in data set [4]. The experiment in a line: Estimate of kcat from initial rate at saturating hydroxyphenylpyruvate without inhibitor (ON rate ratio assay).
Description: as §1
Thirty nine variants were desensitized to tembotrione compared with the backbone enzyme, Round 7, variant 9070 (SEQ ID NO:2) and all were desensitized compared with maize wild type HPPD (SEQ ID NO:1). Because the assay for ON rate ratio includes an initial rate measurement at saturating hydroxyphenylpyruvate without inhibitor and with known enzyme concentration, an estimate of kcat was available. Taking into account kcat and insensitivity parameters, 30 variants were selected for measurement of substrate saturation kinetic parameters and re-evaluation of insensitivity to tembotrione. The kinetic and insensitivity parameters were determined as described in Example 1, and were multiplied to generate the “trait fitness” parameter. The complete list of variants, i.e., of selected single substitutions in SEQ ID NO:2, analyzed with multiple inhibitors and the results obtained are shown in Table 6. The same set of 30 variants were evaluated for insensitivity to mesotrione, sulcotrione, isoxaflutole (its active diketonitrile form, abbreviated DKN in Table 6) and topramezone.

Setting [5] is: Table 7, tembotrione, combinatorial variants.
The mark [6] stands for this setting: Table 7, combinatorial variants.

B1: P056028-F-01 (protein)
chain: MGPTPTATAAGAAVAAASAAEQAAFRLVGHRNFVRFNPRSDRFQTLAFHHVELWCADAASAAGRFSFALGVPLAARSDLSTGNSAHASLLLRSGSLSLLFTAPYAHGADAATAALPSFSAAAARRFAADHGLAVRAVALRVADAEDAFRASVAAGARPAFGPVDLGRGFRLAEVELYGDVVLRYVSYPDGGAGEPFLPGFEGVASPGAADYGLSRFDHIVGNVPELAPAAAYMAGFTGFHEFAEFTTEDVGTTESGLNSMALANNSENVLLPLNEPVHGTKRRSQIQTFLDHHGGPGVQHIALASDDVLRTLREMRARSAMGGFEFLPPPLSDYYDGVRRCAGDVLTEAQINECQELGVMVDRDDEGVLLQIFTKPVGDRPTFFLEIIQRIGCMEKDEKGQEYQKGGCGGFGKGNFGQLFRSIEDYEKSLEAKRAAAAATAQGS
modifications: Zea mays variant form created by artificial means.
As to B1, the ON rate ratio in data set [1] is 0.718. For the same molecule, the OFF rate ratio in data set [2] was found to be 0.304. Moreover, the “ON × OFF” value in data set [3] (Megatable 3, shuffled variants) is listed as 0.218; in data set [3] (setting [5]) it was 0.218. Besides, the “ON × OFF × kcat” value in data set [3] (Megatable 3, shuffled variants) is recorded as 6.82; in data set [3] (setting [5]) it was 6.82. Also, the kcat was 0.522 s⁻¹ in data set [4] (Megatable 3, shuffled variants) and 0.522 s⁻¹ in data set [4] (setting [6]).

B2: P056028-D-08 (protein)
chain: MGPTPTATAAGAAVAAASAAEQAAFRLVGHRNFVRFNPRSDRFQTLAFHHVELWCADAASAAGRFSFALGVPLAARSDLSTGNSAHASLLLRSGSLSLLFTAPYAHGADAATAALPSFSAAAARRFAADHGLAVRAVALRVADAEDAFRASVAAGARPAFGPVDLGRGFRLAEVELYGDVVLRYVSYPDGGAGEPFLPGFEGVASPGAADYGLSRFDHIVGNVPELAPAAAYMAGFTGFHEFAEFTTEDVGTTESGLNSMALANNSENVLLPLNEPVHGTKRRSQIQTFLDHHGGPGVQHIALASDDVLRTLREMRARSAMGGFEFLPPPLSDYYDGVRKCAGDVLTEAQINECQELGVMVDRDDEGVLLQIFTKPVGDRPTFFLEIIQRIGCMEKDEKGQEYQKGGCGGFGKGNFGQLFKSIEDYEKSLEAKRAAAAATAQGS
modifications: Zea mays variant form created by artificial means.
B2: in data set [1], the ON rate ratio turned out to be 0.681. Besides, the OFF rate ratio in data set [2] was determined as 0.361. For the same molecule, the “ON × OFF” value was determined as 0.246 in data set [3] (Megatable 3, shuffled variants) and 0.246 in data set [3] (setting [5]). Further, the “ON × OFF × kcat” value was 6.77 in data set [3] (Megatable 3, shuffled variants) and 6.77 in data set [3] (setting [5]). In addition, the kcat is 0.458 s⁻¹ in data set [4] (Megatable 3, shuffled variants) and 0.458 s⁻¹ in data set [4] (setting [6]).

B3: P056028-E-02 (protein)
chain: MGPTPTATAAGAAVAAASAAEQAAFRLVGHRNFVRFNPRSDRFQTLAFHHVELWCADAASAAGRFSFALGVPLAARSDLSTGNSAHASLLLRSGSLSLLFTAPYAHGADAATAALPSFSAAAARRFAADHGLAVRAVALRVADAEDAFRASVAAGARPAFGPVDLGRGFRLAEVELYGDVVLRYVSYPDGAAGEPFLPGFEGVASSGAADYGLSRFDHIVGNVPELAPAAAYMAGFTGFHEFAEFTTEDVGTTESGLNSMALANNSENVLLPLNEPVHGTKRRSQIQTFLDHHGGPGVQHIALASDDVLRTLREMRARSAMGGFEFLPPPLSDYYDGVRRCAGDVLTEAQINECQELGVMVDRDDEGVLLQIFTKPVGDRPTFFLEIIQRIGCMEKDEKGQEYQKGGCGGFGKGNFGQLFKSIEDYEKSLEAKQAAAAATAQGS
modifications: Zea mays variant form created by artificial means.
For the molecule B3, in data set [1], the ON rate ratio is given as 0.761. For the same molecule, the OFF rate ratio in data set [2] came out at 0.326. Besides, the “ON × OFF” value in data set [3] (Megatable 3, shuffled variants) is 0.248; in data set [3] (setting [5]) it was 0.248. For the same molecule, the “ON × OFF × kcat” value in data set [3] (Megatable 3, shuffled variants) stood at 5.86; in data set [3] (setting [5]), 5.86. For the same molecule, the kcat is 0.393 s⁻¹ in data set [4] (Megatable 3, shuffled variants) and 0.393 s⁻¹ in data set [4] (setting [6]).

B4: P056028-C-01 (protein)
chain: MGPTPTATAAGAAVAAASAAEQAAFRLVGHRNFVRFNPRSDRFQTLAFHHVELWCADAASAAGRFSFALGVPLAARSDLSTGNSAHASLLLRSGSLSLLFTAPYAHGADAATAALPSFSAAAARRFAADHGLAVRAVALRVADAEDAFRASVAAGARPAFGPVDLGRGFRLAEVELYGDVVLRYVSYPDGAAGEPFLPGFEGVASSGAADLGLSRFDHIVGNVPELAPAAAYMAGFTGFHEFAEFTTEDVGTTESGLNSMALANNSENVLLPLNEPVHGTKRRSQIQTFLDHHGGPGVQHIALASDDVLRTLREMRARSAMGGFEFLPPPLSDYYDGVRRCAGDVLTEAQINECQELGVMVDRDDEGVLLQIFTKPVGDRPTFFLEIIQRIGCMEKDEKGQEYQKGGCGGFGKGNFGQLFKSIEDYEKSLEAKQAAAAATAQGS
modifications: Zea mays variant form created by artificial means.
Turning to B4, the ON rate ratio in data set [1] came out at 0.742. Besides, the OFF rate ratio in data set [2] came out at 0.310. Further, the “ON × OFF” value came to 0.230 in data set [3] (Megatable 3, shuffled variants) and 0.230 in data set [3] (setting [5]). Besides, the “ON × OFF × kcat” value was found to be 5.95 in data set [3] (Megatable 3, shuffled variants) and 5.95 in data set [3] (setting [5]). Also, the kcat was 0.432 s⁻¹ in data set [4] (Megatable 3, shuffled variants) and 0.432 s⁻¹ in data set [4] (setting [6]).

B5: P056028-C-07 (protein)
chain: MGPTPTATAAGAAVAAASAAEQAAFRLVGHRNFVRFNPRSDRFQTLAFHHVELWCADAASAAGRFSFALGVPLAARSDLSTGNSAHASLLLRSGSLSLLFTAPYAHGADAATAALPSFSAAAARRFAADHGLAVRAVALRVADAEDAFRASVAAGARPAFGPVDLGRGFRLAEVELYGDVVLRYVSYPDGGAGEPFLPGFEGVASPGAADYGLSRFDHIVGNVPELAPAAAYMAGFTGFHEFAEFTTEDVGTTESGLNSMALANNSENVLLPLNEPVHGTKRRSQIQTFLDHHGGPGVQHIALASDDVLRTLREMRARSAMGGFEFLPPPLSDYYDGVRKCAGDVLTEAQINECQRLGVMVDRDDEGVLLQIFTKPVGDRPTFFLEIIQRIGCMEKDEKGQEYQKGGCGGFGKGNFGQLFKSIEDYEKSLEAKRAAAAATAQGS
modifications: Zea mays variant form created by artificial means.
Regarding B5, the ON rate ratio in data set [1] is recorded as 0.714. In data set [2], the OFF rate ratio amounted to 0.382. Moreover, the “ON × OFF” value is 0.273 in data set [3] (Megatable 3, shuffled variants) and 0.273 in data set [3] (setting [5]). The “ON × OFF × kcat” value in data set [3] (Megatable 3, shuffled variants) is 5.80; in data set [3] (setting [5]), 5.80. Also, the kcat in data set [4] (Megatable 3, shuffled variants) is 0.353 s⁻¹; in data set [4] (setting [6]), 0.353 s⁻¹.

The record behind these values is patent US11015206B2, “Compositions and methods comprising sequences having hydroxyphenylpyruvate dioxygenase (HPPD) activity” (PIONEER HI-BRED INTERNATIONAL, INC., priority 2014, dated 2021).
